Assay results from PMC8575264.
Where two headings read alike, the source gives them in different places.

Columns and labels:
Assay in all cases: fluorescence anisotropy
Zn(II)-CPSF30-F2F3 = Zn(II)-CPSF30-F2F3 (UniProt O19137)
holo-CPSF30-FL [1] = biological target: T1, holo-CPSF30-FL (Bos taurus, UniProt O19137 1-243)
holo-CPSF30-FL [2] = biological target: T1, holo-CPSF30-FL; remark: listed apart in the source
Zn(II)-CPSF30-ZK = biological target: T2, Zn(II)-CPSF30-ZK (UniProt O19137)
T2 chain: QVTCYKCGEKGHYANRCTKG

holo-CPSF30-5F [3] = biological target: T3, holo-CPSF30-5F (UniProt O19137 35-169)
holo-CPSF30-FL [4] = biological target: T1, holo-CPSF30-FL; remark: listed apart in the source
holo-CPSF30-5F [5] = biological target: T3, holo-CPSF30-5F; remark: listed apart in the source
holo-CPSF30-FL [6] = biological target: T1, holo-CPSF30-FL; remark: listed apart in the source

B1: AAU9 (ssRNA)
RNA: AAUAAUAAU
binding result (Zn(II)-CPSF30-F2F3): no binding

B2: α-syn24 (ssRNA)
RNA: CACUUUAAUAAUAAAAAUCAUGCU
apparent K (half saturation) (holo-CPSF30-FL [1]): 110 nM
binding result (Zn(II)-CPSF30-F2F3): no binding

B3: AAU24 (ssRNA)
RNA: AAUAAUAAUAAUAAUAAUAAUAAU
binding result (Zn(II)-CPSF30-F2F3): no binding

B4: PolyC24 (ssRNA)
RNA: CACUUUAAUCCCCCCAAUCAUGCU
binding result (holo-CPSF30-FL [2]): no binding

B5: ARE11 (ssRNA)
RNA: UUUAUUUAUUU
binding result (Zn(II)-CPSF30-ZK): no binding
binding result (Zn(II)-CPSF30-F2F3): no binding

B6: ΔA1,2,4,5 (ssRNA)
RNA: CACUUUAAUCCUCCAAAUCAUGCU
binding result (holo-CPSF30-5F [3]): no binding
apparent K (half saturation) (holo-CPSF30-FL [4]): 275 nM

B7: AAU12 (ssRNA)
RNA: AAUAAUAAUAAU
binding result (Zn(II)-CPSF30-F2F3): no binding

B8: PolyU24 (ssRNA)
RNA: UUUUUUUUUUUUUUUUUUUUUUUU
binding result (holo-CPSF30-5F [3]): no binding
binding result (Zn(II)-CPSF30-ZK): no binding

B9: α-syn30 (ssRNA)
RNA: UCUCACUUUAAUAAUAAAAAUCAUGCUUAU
apparent K (half saturation) (holo-CPSF30-5F [5]): 178 nM
apparent K (half saturation) (holo-CPSF30-FL [6]): 110 nM
binding result (Zn(II)-CPSF30-F2F3): no binding
